According to patent US20090048161A1:
Where no end group is shown, it is not given here. [ ]: non-standard residue; d: D form.

Target: IL-1R on freshly isolated rat thymocytes (rat) (UniProt Q02955)
Assay: radioligand binding on freshly isolated rat thymocytes: displacement of 6 nM I^125-API-101.10 by increasing non-radioactive API-101.10 (printed as 'affinity')

## [dR][dY][dT][dV][dE][dL][dA] (also: 125I-labelled form used as tracer, site not given here) [API-101.10]
  Kd: 1000 nM
